Experimental findings from patent publication US20040038400A1 (TRUSTEES OF DARTMOUTH COLLEGE, published 2004) are described below.

In the assay the target is T1, WC-1 (Neurospora, UniProt Q01371 1-1167).
T1 construct: Tested either as native protein in Neurospora nuclear extracts or as 'full-length WC-1' made in reticulocyte lysate; also called White Collar-1; WC-1 protein
Nature of the assay: EMSA supershift with nuclear extracts; complexes absent with extracts from wc-1 ER45 or wc-2 KO strains. The source says: The presence of WC-1 and WC-2 in the LRE-bound complexes was confirmed by the absence of complexes in binding reactions performed using nuclear protein extracts from wc-1^ER45 (loss-of-function) or wc-2^KO strains (Collett, et al. (2002) Genetics 160:149). […] Because WC-1 and WC-2 are known to complex with FRQ (Denault, et al. (2001) EMBO J. 20:109; Cheng, et al. (2001) EMBO J. 20:101; Merrow, et al. (2001) EMBO J. 20:307), the presence of FRQ in the complexes bound to the LREs was also determined using FRQ antiserum and extracts from an frq^KO strain. FRQ was not in the dark- or light-induced complexes bound to the LREs, nor was FRQ necessary for the formation of the complexes.
Binding reactions using nuclear protein extracts contained 1× binding buffer, […] KCl, 0.1 μg poly(dI-dC), 1 μl probe, 0.5 μl of normal rabbit sera (Pocono Rabbit Farm, Canadensis, Pa.), and 3 μg of nuclear protein extract, which was added last to the binding reactions, in a total volume of 20 μl. In reactions that contained antisera, 1 μl anti-WC-1, 1 μl anti-WC-2, or 0.5 μl anti-FRQ was used. Binding reactions using in vitro translated proteins contained 1× binding buffer, 1 μg poly(dI-dC), 1 μl probe, and 6 μl of the in vitro translation reaction in a total volume of 20 μl. […]

T1 sequence (Q01371 whole entry): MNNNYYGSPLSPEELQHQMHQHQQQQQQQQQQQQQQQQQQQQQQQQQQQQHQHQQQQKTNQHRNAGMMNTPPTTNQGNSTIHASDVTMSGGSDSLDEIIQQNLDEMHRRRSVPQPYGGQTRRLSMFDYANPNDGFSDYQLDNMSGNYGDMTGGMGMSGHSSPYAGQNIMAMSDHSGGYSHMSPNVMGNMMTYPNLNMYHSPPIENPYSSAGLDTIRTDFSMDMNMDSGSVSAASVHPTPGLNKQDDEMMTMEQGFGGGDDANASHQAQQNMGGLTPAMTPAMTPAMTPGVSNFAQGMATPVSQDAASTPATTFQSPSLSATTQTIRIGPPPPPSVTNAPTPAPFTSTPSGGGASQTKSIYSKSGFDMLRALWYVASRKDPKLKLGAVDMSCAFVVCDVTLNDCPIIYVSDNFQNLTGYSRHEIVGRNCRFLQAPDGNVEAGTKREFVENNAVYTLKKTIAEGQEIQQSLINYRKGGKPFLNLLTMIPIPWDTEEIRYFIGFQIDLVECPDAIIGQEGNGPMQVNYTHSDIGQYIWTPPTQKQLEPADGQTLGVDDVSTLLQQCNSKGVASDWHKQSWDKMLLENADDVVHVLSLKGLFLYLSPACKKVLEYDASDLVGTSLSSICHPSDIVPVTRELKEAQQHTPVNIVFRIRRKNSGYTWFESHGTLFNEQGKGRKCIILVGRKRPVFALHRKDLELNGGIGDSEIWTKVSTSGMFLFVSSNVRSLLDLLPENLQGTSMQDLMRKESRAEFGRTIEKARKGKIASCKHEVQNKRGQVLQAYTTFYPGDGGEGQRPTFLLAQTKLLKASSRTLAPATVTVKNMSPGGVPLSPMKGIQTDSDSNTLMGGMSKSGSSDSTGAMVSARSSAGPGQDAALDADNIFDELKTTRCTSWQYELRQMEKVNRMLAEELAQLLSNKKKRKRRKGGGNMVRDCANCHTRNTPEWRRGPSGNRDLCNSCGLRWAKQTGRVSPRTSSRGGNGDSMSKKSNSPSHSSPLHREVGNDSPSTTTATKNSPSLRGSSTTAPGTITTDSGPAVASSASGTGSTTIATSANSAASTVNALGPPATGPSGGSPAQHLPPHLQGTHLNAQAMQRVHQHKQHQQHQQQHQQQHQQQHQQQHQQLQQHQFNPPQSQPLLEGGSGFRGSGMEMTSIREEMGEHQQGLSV

B1: WC-2 (other, Neurospora, UniProt P78714 1-530, looked up)
chain: MSHGQPPPGSSMYGFGAMGMGSGMGSGMGSGMGTGMGTGMGTGMSASQMTSDPQDMMSLLDTSVFPGFDGMSMSLDVGDSMSNPFTPVSVPPPLPAGNAGPSHVGVCGGHGAPDQLFSPDDLIATSMSSAGPMIATPTTTTSGPSGGPSSGGGSTLTEFTKRRNWPAKVVEELQDWEHILDANGRIKHVSPSVEPLTGYKPPEIIDLFLRDLIHPDDVGVFTAELNEAIATGSQLRLFYRFRKKDGNWTIFETVGHAHIAAAKFAPNPQNQSPFCQAVFMMARPYPTKNAGLLDSFLEHKIENERLKRRIAELRREEQEEQEESHRTWRMSQEGRSDVTPSDDTATQMGMTPFYIPMNAQADVMMPPPSQPASSLNIALTRENLEGIAGSRPDSIREKMLRYEGNHADTIEMLTGLKYQEGERSHGITTGNASPTLIKGDAGIAIPLDRDPRTGEKKKKIKVAEEYVCTDCGTLDSPEWRKGPSGPKTLCNACGLRWAKKEKKKNANNNNNGGGIGGHNDIHTPMGDHMG
notes: Transcription factor; Tested either as native protein in Neurospora nuclear extracts or as 'full length WC-2' made in reticulocyte lysate; also called White Collar-2; WC-2 protein
On to B1, for which the binding result is “binds”.
